Data on 1 substance can be found in patent publication US20160033490A1.

The test has as its target HRV-3C protease biosensor: blocked hybrid scFv of H6-MG (VH) and HL1-TO1 (VL) with the HRV-3C recognition sequence […]in the peptide linker. Put plainly: cell-based or functional assay.

On to Human Rhinovirus 3C protease (enzyme), for which the kinetic assay of MG fluorescence activation, time to complete activation (1 unit protease, 25° C.) worked out at 30 min.
